First the molecules themselves.
B1: CD3.9 scFv (parental anti-CD3 scFv) (scFv)
scFv: ELVVTQEPSLTVSPGGTVTLTCRSSTGAVTTSNYANWVQQKPGQAPRGLIGGTNKRAPGTPARFSGSLLGGKAALTLSGVQPEDEAEYYCALWYSNLWVFGGGTKLTVLGATPPETGAETESPGETTGGSAESEPPGEGEVQLLESGGGLVQPGGSLKLSCAASGFTFNTYAMNWVRQAPGKGLEWVARIRSKYNNYATYYADSVKDRFTISRDDSKNTAYLQMNNLKTEDTAVYYCVRHGNFGNSYVSWFAYWGQGTLVTVSS
notes: VL-linker-VH scFv; also called hCD3.9; aCD3.9
B2: CD3.23 scFv (scFv)
scFv: B1 scFv with T26N, T31S, E87V, S95P, L150I, A220V, G241E, Y253H
notes: VL-linker-VH scFv; also called hCD3.23; aCD3.23
B3: CD3.25 scFv (scFv)
scFv: B1 scFv with L10H, T31S, N54I, S95P, L150I, A220V, G241E, Y253H
notes: VL-linker-VH scFv
B4: CD3.24 scFv (scFv)
scFv: B1 scFv with T26N, A28E, N54I, E87V, S95P, L150I, A220V, G241E, Y253H
notes: VL-linker-VH scFv
B5: CD3.26 scFv (scFv)
scFv: B1 scFv with L10H, A28E, N54I, S95P, L150I, A220V, G241E, Y253H
notes: VL-linker-VH scFv

Positions count from the first letter of the chain named.

In this assay the target is Biotinylated CD3(Eµ antigen (Creative Biomart) (UniProt P07766 23-126, biotinylated (site not stated))). Briefly: BLI (ForteBio BLItz), biotinylated CD3 antigen on streptavidin biosensor, scFv in solution. On the technique in general: BLI is a label-free optical method that tracks binding on a fibre tip over time.
Biotinylated CD3(Eµ antigen (Creative Biomart), sequence (P07766 23-126): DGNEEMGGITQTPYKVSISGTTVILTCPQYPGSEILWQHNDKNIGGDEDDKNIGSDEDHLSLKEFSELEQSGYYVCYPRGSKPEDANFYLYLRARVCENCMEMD
In general, Kd refers to the equilibrium constant for the complex coming apart. A low value points to higher affinity. B1 returned a dissociation constant (Kd) of 75 nM.

For the molecule B2, binding was characterised by a dissociation constant (Kd) of 175 nM.

B3: the affinity, expressed as Kd, was 215 nM.

Molecule B4 had a Kd of 296 nM.

On to B5, for which the Kd stood at 221 nM.

The values above are taken from patent publication US20230121775A1 (AMUNIX PHARMACEUTICALS, published 2023).
